# In patent publication US20240043512A1:
# Target: IM-CA22
# Assay: competition ELISA: 0.5 µg/mL peptide added to prevent the binding of AS-SPIK with IM-CA22; inhibition rate from OD value with vs without peptide
# Chain of IM-CA22 (VH, as listed by the source, chain 1 of 2): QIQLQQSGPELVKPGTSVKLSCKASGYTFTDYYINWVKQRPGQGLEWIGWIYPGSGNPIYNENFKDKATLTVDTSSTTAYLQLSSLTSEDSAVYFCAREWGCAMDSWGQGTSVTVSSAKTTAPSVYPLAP
# Chain of IM-CA22 (VL, as listed by the source, chain 2 of 2): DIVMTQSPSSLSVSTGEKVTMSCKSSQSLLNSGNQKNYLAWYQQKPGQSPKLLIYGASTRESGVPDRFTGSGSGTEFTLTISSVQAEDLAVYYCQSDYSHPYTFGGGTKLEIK
row,Inhibition % [%],Binder
1,6,GNTGADSLG [SPIK4]
2,6,SLSGNTGAD [SPIK7]
3,6,LSGNTGADS [SPIK6]
4,5,SGNTGADSL [SPIK5]
